In this assay the target is mysterin/RNF213, wild type, full length, C-terminally 3 × FLAG-tagged (mysterin-FLAG) and C-terminally cMyc-tagged (mysterin-Myc) copies (human) (UniProt Q63HN8). As to the kind of experiment: co-IP; two differently tagged copies (C-terminal 3 × FLAG and cMyc) co-expressed in HEK-293 cells; lysate immunoprecipitated with anti-FLAG antibody, immunoblot with anti-Myc antibody; lysis buffer 1% NP-40, 150 mM KCl, 50 mM HEPES-NaOH pH 7.5. Conditions: remark: other sources report otherwise.

“mysterin/RNF213, wild type, full length, C-terminally 3 × FLAG-tagged (mysterin-FLAG) and C-terminally cMyc-tagged (mysterin-Myc) copies, Q63HN8 1-5207” returned an efficiency of the co-IP (co-IP divided by the basal expression level) of 1 to 3%.
